Holding throughout (assay): cell_activity
The subject of one data set is I-ScaI D90S D90S. Conditions: catalytically inactive, background; binding not tested.
For another data set, the system named is I-ScaI I250N I250N. The following applies: three site copies in pBar2, E. coli.
Another data set has as its system I-ScaI. Conditions: three site copies in pBar2, E. coli.

For the sequence “TGAGGTGCACTAGTTA (double strand) [I-ScaI site]”, the values for the activity in the data set on I-ScaI D90S D90S, with I-ScaI I250N I250N and with I-ScaI were 18 % survival, 27 % survival and 65 % survival, respectively.

(Values after patent US7476500.)
